# Laboratory results reported in US20160250128A1 (INFINITEC ACTIVOS S L, published 2016).
# B1: Ac-Ile-Ser-Leu-Leu-Asp-(d)Ala-Gln-Ser-NH2 (peptide)
# peptide: ISLLDAQS
# HELM: PEPTIDE1{[ac].I.S.L.L.D.[dA].Q.S.[am]}$$$$V2.0
# SMILES: CC[C@H](C)[C@H](NC(C)=O)C(=O)N[C@@H](CO)C(=O)N[C@@H](CC(C)C)C(=O)N[C@@H](CC(C)C)C(=O)N[C@@H](CC(=O)O)C(=O)N[C@H](C)C(=O)N[C@@H](CCC(N)=O)C(=O)N[C@@H](CO)C(N)=O
# B2: Palm-Ile-Ser-Leu-Leu-Asp-(d)Ala-Gln-Ser-NH2 (peptide)
# peptide: ISLLDAQS
# HELM: PEPTIDE1{[CCCCCCCCCCCCCCCC(=O)[*:2]].I.S.L.L.D.[dA].Q.S.[am]}$$$$V2.0
# SMILES: CCCCCCCCCCCCCCCC(=O)N[C@H](C(=O)N[C@@H](CO)C(=O)N[C@@H](CC(C)C)C(=O)N[C@@H](CC(C)C)C(=O)N[C@@H](CC(=O)O)C(=O)N[C@H](C)C(=O)N[C@@H](CCC(N)=O)C(=O)N[C@@H](CO)C(N)=O)[C@@H](C)CC
# B3: Ac-Ile-Ser-(d)Leu-Leu-Asp-(d)Ala-Gln-Ser-NH2 (peptide)
# peptide: ISLLDAQS
# HELM: PEPTIDE1{[ac].I.S.[dL].L.D.[dA].Q.S.[am]}$$$$V2.0
# SMILES: CC[C@H](C)[C@H](NC(C)=O)C(=O)N[C@@H](CO)C(=O)N[C@H](CC(C)C)C(=O)N[C@@H](CC(C)C)C(=O)N[C@@H](CC(=O)O)C(=O)N[C@H](C)C(=O)N[C@@H](CCC(N)=O)C(=O)N[C@@H](CO)C(N)=O
# B4: Palm-Ile-Ser-(d)Leu-Leu-Asp-(d)Ala-Gln-Ser-NH2 (peptide)
# peptide: ISLLDAQS
# HELM: PEPTIDE1{[CCCCCCCCCCCCCCCC(=O)[*:2]].I.S.[dL].L.D.[dA].Q.S.[am]}$$$$V2.0
# SMILES: CCCCCCCCCCCCCCCC(=O)N[C@H](C(=O)N[C@@H](CO)C(=O)N[C@H](CC(C)C)C(=O)N[C@@H](CC(C)C)C(=O)N[C@@H](CC(=O)O)C(=O)N[C@H](C)C(=O)N[C@@H](CCC(N)=O)C(=O)N[C@@H](CO)C(N)=O)[C@@H](C)CC
# B5: Palm-Ile-Ser-Leu-Leu-Asp-Ala-Gln-Ser-NH2 (peptide)
# peptide: ISLLDAQS
# HELM: PEPTIDE1{[CCCCCCCCCCCCCCCC(=O)[*:2]].I.S.L.L.D.A.Q.S.[am]}$$$$V2.0
# SMILES: CCCCCCCCCCCCCCCC(=O)N[C@H](C(=O)N[C@@H](CO)C(=O)N[C@@H](CC(C)C)C(=O)N[C@@H](CC(C)C)C(=O)N[C@@H](CC(=O)O)C(=O)N[C@@H](C)C(=O)N[C@@H](CCC(N)=O)C(=O)N[C@@H](CO)C(N)=O)[C@@H](C)CC
# B6: Pamitoyl-Ser-Tyr-Ser-Nle-Glu-His-DPhe-Arg-(5-hydroxytryptophan)-Gly-Lys-DPro-Val-NH-(CH2)3-(OCH2CH2)2-CH2-NH2, coupled to capsules (peptide)
# peptide: SYSXEHFRXGKPV
# modifications: N-terminal palmitoyl; Nle at 4 (X); D-Phe at 7; 5-hydroxytryptophan at 9 (X); D-Pro at 12; C-terminal NH-(CH2)3-(OCH2CH2)2-CH2-NH2
# notes: Coupled to the outer surface of fluorescent polymer capsules in the assay; also called peptide of formula (I), AA1 = 5-hydroxytryptophan
# B7: Pamitoyl-Ser-Tyr-Ser-Nle-Glu-His-DPhe-Arg-(L-3,4-dihydroxyphenylalanine)-Gly-Lys-DPro-Val-NH-(CH2)3-(OCH2CH2)2-CH2-NH2, coupled to capsules (peptide)
# peptide: SYSXEHFRXGKPV
# modifications: N-terminal palmitoyl; Nle at 4 (X); D-Phe at 7; L-3,4-dihydroxyphenylalanine at 9 (X); D-Pro at 12; C-terminal NH-(CH2)3-(OCH2CH2)2-CH2-NH2
# notes: Coupled to the outer surface of fluorescent polymer capsules in the assay; also called peptide of formula (I), AA1 = L-3,4-dihydroxyphenylalanine
# B8: Pamitoyl-Ser-Tyr-Ser-Nle-Glu-His-DPhe-Arg-(3-(2-Naphthyl)-D-alanine)-Gly-Lys-DPro-Val-NH-(CH2)3-(OCH2CH2)2-CH2-NH2, coupled to capsules (peptide)
# peptide: SYSXEHFRXGKPV
# modifications: N-terminal palmitoyl; Nle at 4 (X); D-Phe at 7; 3-(2-Naphthyl)-D-alanine at 9 (X); D-Pro at 12; C-terminal NH-(CH2)3-(OCH2CH2)2-CH2-NH2
# notes: Coupled to the outer surface of fluorescent polymer capsules in the assay; also called peptide of formula (I), AA1 = 3-(2-Naphthyl)-D-alanine
# B9: Pamitoyl-Ser-Tyr-Ser-Nle-Glu-His-DPhe-Arg-His-Gly-Lys-DPro-Val-NH-(CH2)3-(OCH2CH2)2-CH2-NH2, coupled to capsules (peptide)
# peptide: SYSXEHFRHGKPV
# modifications: N-terminal palmitoyl; Nle at 4 (X); D-Phe at 7; D-Pro at 12; C-terminal NH-(CH2)3-(OCH2CH2)2-CH2-NH2
# notes: Coupled to the outer surface of fluorescent polymer capsules in the assay; Stereochemistry of the residue at 9 is not specified; also called peptide of formula (I), AA1 = Histidine
# B10: Pamitoyl-Ser-Tyr-Ser-Nle-Glu-His-DPhe-Arg-Tyr-Gly-Lys-DPro-Val-NH-(CH2)3-(OCH2CH2)2-CH2-NH2, coupled to capsules (peptide)
# peptide: SYSXEHFRYGKPV
# modifications: N-terminal palmitoyl; Nle at 4 (X); D-Phe at 7; D-Pro at 12; C-terminal NH-(CH2)3-(OCH2CH2)2-CH2-NH2
# notes: Coupled to the outer surface of fluorescent polymer capsules in the assay; Stereochemistry of the residue at 9 is not specified; also called peptide of formula (I), AA1 = Tyrosine
# B11: Pamitoyl-Ser-Tyr-Ser-Nle-Glu-His-DPhe-Arg-Phe-Gly-Lys-DPro-Val-NH-(CH2)3-(OCH2CH2)2-CH2-NH2, coupled to capsules (peptide)
# peptide: SYSXEHFRFGKPV
# modifications: N-terminal palmitoyl; Nle at 4 (X); D-Phe at 7; D-Pro at 12; C-terminal NH-(CH2)3-(OCH2CH2)2-CH2-NH2
# notes: Coupled to the outer surface of fluorescent polymer capsules in the assay; Stereochemistry of the residue at 9 is not specified; also called peptide of formula (I), AA1 = Phenylalanine
# B12: Pamitoyl-Ser-Tyr-Ser-Nle-Glu-His-DPhe-Arg-(3-amino-3-(biphenyl) propionic acid)-Gly-Lys-DPro-Val-NH-(CH2)3-(OCH2CH2)2-CH2-NH2, coupled to capsules (peptide)
# peptide: SYSXEHFRXGKPV
# modifications: N-terminal palmitoyl; Nle at 4 (X); D-Phe at 7; 3-amino-3-(biphenyl) propionic acid at 9 (X); D-Pro at 12; C-terminal NH-(CH2)3-(OCH2CH2)2-CH2-NH2
# notes: Coupled to the outer surface of fluorescent polymer capsules in the assay; also called peptide of formula (I), AA1 = 3-amino-3-(biphenyl) propionic acid
# B13: Pamitoyl-Ser-Tyr-Ser-Nle-Glu-His-DPhe-Arg-(3-amino-3-(1-naphthyl) propionic acid)-Gly-Lys-DPro-Val-NH-(CH2)3-(OCH2CH2)2-CH2-NH2, coupled to capsules (peptide)
# peptide: SYSXEHFRXGKPV
# modifications: N-terminal palmitoyl; Nle at 4 (X); D-Phe at 7; 3-amino-3-(1-naphthyl) propionic acid at 9 (X); D-Pro at 12; C-terminal NH-(CH2)3-(OCH2CH2)2-CH2-NH2
# notes: Coupled to the outer surface of fluorescent polymer capsules in the assay; also called peptide of formula (I), AA1 = 3-amino-3-(1-naphthyl) propionic acid
# Molecular target: Mushroom Tyrosinase (mushroom)
# Assay: cell-based or functional assay
row,% INHIBITION TYROSINASE,Binder
1,31%,B1
2,42%,B2
3,40%,B3
4,48%,B4
5,39%,B5
6,28%,Ac-ISLLDAQS-NH2 [Ac-Ile-Ser-Leu-Leu-Asp-Ala-Gln-Ser-NH2]

# Molecular target: T1, Melanocortin receptor 1 (MC1R) on melanocytes (human, UniProt Q01726 1-317)
# T1 construct: whole, on cells; also called MC1 receptor; MCR1 receptors on the melanocyte
# T1 sequence (Q01726 whole entry): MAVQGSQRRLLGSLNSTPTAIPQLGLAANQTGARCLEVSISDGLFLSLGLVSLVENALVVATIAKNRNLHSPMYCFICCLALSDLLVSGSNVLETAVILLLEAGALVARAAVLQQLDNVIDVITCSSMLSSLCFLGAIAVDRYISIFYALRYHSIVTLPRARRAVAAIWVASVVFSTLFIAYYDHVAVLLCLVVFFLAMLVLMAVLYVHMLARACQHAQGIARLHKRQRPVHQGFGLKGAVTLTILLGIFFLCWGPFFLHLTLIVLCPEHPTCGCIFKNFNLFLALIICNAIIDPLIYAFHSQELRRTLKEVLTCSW
# Assay: flow cytometry, cell-associated fluorescence of peptide-targeted capsules (50 µg/mL, 37° C., 3 h) on melanocytes in a mixed cell population
# Description: Distinct types of cells were incubated with the capsules of the invention (50 μg/mL) which have been targeted with different peptides of formula (Ia) or non-targeted capsules (50 μg/mL) at 37° C. for 3 h. The peptides of formula (I) used to target the capsules in this example are peptides of formula Pamitoyl-Ser-Tyr-Ser-Nle-Glu-His-DPhe-Arg-(AA₁)-Gly-Lys-DPro-Val-NH—(CH₂)₃—(OCH₂CH₂)₂—CH₂—NH₂ wherein the nature of the aminoacid in position 9 (AA₁) is indicated in the first column of table 3. Cells were washed and stained with receptor-specific antibody or isotype control antibody to specifically detect distinct types of cells. Subsequently, cells were analyzed by flow cytometry on a FacsCalibur. The cell associated fluorescence was calculated by dividing the mean cell fluorescence intensity (mfi) for a given sample by the mfi of melanocytes incubated with targeted capsules, which was set at 100% (see FIG. 5 and table 4).
row,Cell specific binding (%),Binder
1,73%,B6
2,80%,B7
3,71%,B8
4,58%,B9
5,80%,B10
6,85%,B11
7,74%,B12
8,75%,B13
